Measured values reported in doi:10.1101/757856.

How the values were obtained:
[1] = molecular target: full-length human Neurofibromin (His6-tagged, purified) (human) (UniProt P21359); assay: SAXS and SANS
[2] = molecular target: full-length human Neurofibromin (His6-tagged, purified) (human) (UniProt P21359); assay: negative stain electron microscopy
[3] = molecular target: full-length human Neurofibromin (His6-tagged, purified) (human) (UniProt P21359); assay: SEC
[4] = molecular target: full-length human Neurofibromin (His6-tagged, purified) (human) (UniProt P21359); assay: AUC
[5] = molecular target: full-length human Neurofibromin (His6-tagged, purified) (human) (UniProt P21359); assay: SEC-MALS

full-length human Neurofibromin (His6-tagged, purified), P21359-2 1-2818
< 5 nM: Kd [4]
2: stoichiometry N [1] | stoichiometry N [2] | stoichiometry N [3] | stoichiometry N [4] | stoichiometry N [5]
